Key:
[1] = biological target: T1, Toll-like receptor 2 (TLR2), from DC lysate (mouse (endogenous in bone …, UniProt Q9QUN7 25-784)); experiment: BLI; BLItz system; Protein A sensor loaded with TLR2 or TLR4 antibody (0.1 mg/mL), then DC lysate (0.3 mg/mL, 150 sec); association with purified PAUF or BSA (0.3 mg/mL) for 150 sec, dissociation in PBS for 150 sec; KD from BLItz pro software as a non-advanced kinetics experiment; conditions: one partner purified
T1 construct: TLR2, endogenous in dendritic cells; captured from DC lysate with an anti-mouse CD282 (TLR2) antibody on a Protein A sensor; Other lysate proteins may have been captured along with TLR2; also called CD282; source: endogenous, DC lysate, captured on the sensor by anti-mouse CD282 (TLR2) antibody

[2] = biological target: T2, Toll-like receptor 4 (TLR4), from DC lysate (mouse (endogenous in bone …, UniProt Q9QUK6 26-835)); experiment: as above; conditions: one partner purified
T2 construct: TLR4, endogenous in dendritic cells; captured from DC lysate with a TLR4/CD284 antibody on a Protein A sensor; Other lysate proteins (e.g. MD-2) may have been captured along with TLR4 (surmised); also called CD284; source: endogenous, DC lysate, captured on the sensor by TLR4/CD284 antibody (IMGENEX)
T2 sequence (looked up): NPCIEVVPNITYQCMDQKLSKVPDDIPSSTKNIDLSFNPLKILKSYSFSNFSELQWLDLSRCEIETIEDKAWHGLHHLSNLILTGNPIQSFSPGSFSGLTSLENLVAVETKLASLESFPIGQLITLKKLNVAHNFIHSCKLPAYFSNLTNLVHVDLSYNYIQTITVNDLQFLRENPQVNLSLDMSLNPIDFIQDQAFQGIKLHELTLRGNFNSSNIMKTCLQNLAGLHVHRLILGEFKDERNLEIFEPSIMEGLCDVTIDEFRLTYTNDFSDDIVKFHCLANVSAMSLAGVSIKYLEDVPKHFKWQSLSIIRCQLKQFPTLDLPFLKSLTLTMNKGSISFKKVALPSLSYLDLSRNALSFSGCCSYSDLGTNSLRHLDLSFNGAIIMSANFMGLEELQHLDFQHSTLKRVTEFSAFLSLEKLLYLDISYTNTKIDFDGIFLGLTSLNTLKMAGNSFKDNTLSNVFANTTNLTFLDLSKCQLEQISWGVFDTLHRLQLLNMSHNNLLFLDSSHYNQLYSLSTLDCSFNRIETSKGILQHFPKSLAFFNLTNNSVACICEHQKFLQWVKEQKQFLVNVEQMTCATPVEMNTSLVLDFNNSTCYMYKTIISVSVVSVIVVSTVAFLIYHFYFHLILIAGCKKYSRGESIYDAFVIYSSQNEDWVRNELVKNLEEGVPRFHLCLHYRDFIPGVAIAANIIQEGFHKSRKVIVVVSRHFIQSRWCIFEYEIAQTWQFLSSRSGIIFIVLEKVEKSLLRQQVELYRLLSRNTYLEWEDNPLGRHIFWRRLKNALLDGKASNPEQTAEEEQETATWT

T1 sequence (Q9QUN7 25-784): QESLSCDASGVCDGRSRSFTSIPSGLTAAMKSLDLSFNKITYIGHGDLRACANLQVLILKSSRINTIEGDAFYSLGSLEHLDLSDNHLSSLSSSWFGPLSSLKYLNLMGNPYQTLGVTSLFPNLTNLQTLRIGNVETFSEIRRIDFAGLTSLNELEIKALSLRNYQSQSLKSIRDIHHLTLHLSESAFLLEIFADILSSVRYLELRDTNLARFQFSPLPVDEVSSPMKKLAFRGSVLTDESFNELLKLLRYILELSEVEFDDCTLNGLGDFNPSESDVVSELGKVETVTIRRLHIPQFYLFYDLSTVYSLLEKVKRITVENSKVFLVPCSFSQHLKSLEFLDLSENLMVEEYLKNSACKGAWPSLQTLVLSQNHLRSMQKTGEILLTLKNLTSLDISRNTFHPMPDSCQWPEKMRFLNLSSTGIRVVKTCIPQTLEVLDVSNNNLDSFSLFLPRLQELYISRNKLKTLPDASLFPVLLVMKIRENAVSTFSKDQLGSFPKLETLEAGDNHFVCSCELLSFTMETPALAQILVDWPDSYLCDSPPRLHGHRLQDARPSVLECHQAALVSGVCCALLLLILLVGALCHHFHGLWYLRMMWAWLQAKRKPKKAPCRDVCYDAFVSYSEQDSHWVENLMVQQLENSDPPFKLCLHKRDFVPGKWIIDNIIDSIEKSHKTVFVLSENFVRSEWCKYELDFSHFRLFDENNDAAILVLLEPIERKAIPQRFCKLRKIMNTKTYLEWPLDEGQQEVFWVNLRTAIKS

- Kd [1]: 10.6 nM
- Kd [2]: 145 nM
B1: Pancreatic adenocarcinoma upregulated factor (PAUF), recombinant, Fc removed (ligand, human, UniProt Q96DA0 17-172, looked up)
chain: GKMYGPGGGKYFSTTEDYDHEITGLRVSVGLLLVKSVQVKLGDSWDVKLGALGGNTQEVTLQPGEYITKVFVAFQAFLRGMVMYTSKDRYFYFGKLDGQISSAYPSQEGQVLVGIYGQYQLLGIKSIGFEWNYPLEEPTTEPPVNLTYSANSPVGR
notes: As a secreted protein it should lack its signal peptide (surmised); also called purified PAUF; PAUF protein; source: CHO/dhFr- cells, transfected with pcDNA3.1(+)-PAUF-Fc; secreted PAUF-Fc purified using Protein A resin, then Fc removed

From paper PMC4695023, “Pancreatic adenocarcinoma upregulated factor serves as adjuvant by activating dendritic cells through stimulation of TLR4” (Oncotarget, 2015)
